Source: patent US11299526B2, “p53-BAD fusion proteins” (University of Utah Research Foundation, priority 2018, dated 2022)
Where a chain is given by its changes, count along the chain named. Names may count otherwise. “Also recorded” adds a separate entry of the source.

B1: Bad/112,136: Bad with S112A and S136A mutations (SEQ ID NO:2), no p53, negative control (protein)
chain: MFQIPEFEPSEQEDSSSAERGLGPSPAGDGPSGSGKHHRQAPGLLWDASHQQEQPTSSSHHGGAGAVEIRSRHSAYPAGTEDDEGMGEEPSPFRGRSRAAPPNLWAAQRYGRELRRMSDEFVDSFKKGLPRPKSAGTATQMRQSSSWTRVFQSWWDRNLGRGSSAPSQ
modifications: mutated BAD peptide
B2: Bad: EGFP-tagged human Bad without p53 (SEQ ID NO:1), negative control (protein, UniProt Q92934 1-168, looked up)
Bcl2-associated agonist of …: B1 chain with A75S, A99S
modifications: EGFP tag

Columns and labels:
[1] = Preliminary toxicity study, IP injected polymer and polymer-Ad; details: mouse, in vivo
OVCAR-3 cells [2] = details: cited from earlier work
Kuramochi cells [3] = assay: Paclitaxel cell viability assay; format: cell-based; details: Homo sapiens, 48 hr
Protocol: Paclitaxel powder (LC Laboratories; Wobum, Mass.) was dissolved in DMSO to 10 mg/mL to make a stock solution. To determine the paclitaxel IC50 in Kuramochi cells, 8×10^3 Kuramochi cells were seeded in 96-well plates 24 hr prior to drug treatment. Paclitaxel in complete growth medium was added at increasing concentrations, and the cells were incubated for 48 hr. The Aqueous One Cell Proliferation Assay (Promega) was used to assess cell viability. For gene transfection and paclitaxel combination treatment, the cells were transfected first. 4 hr after transfection, paclitaxel was added at 100 nM or 200 nM, and the cells were incubated for 48 hr as previously optimized by our lab.
After confirming the high apoptotic potential of p53-Bad/112,136, we wanted to test the possibility of combining p53-Bad/112,136 gene therapy with paclitaxel, a standard-of-care for HGSC. Based on a genomic and gene expression profile study with 47 ovarian cancer cell lines, Kuramochi was identified to be the best model for high grade serous ovarian cancer, with the highest genetic similarity to ovarian tumors. The IC50 of paclitaxel was determined using a cell viability […] assay. Kuramochi cells were incubated with different paclitaxel concentrations ranging from 0 nM to 1000 nM for 48 hr. The IC50 value was determined to be approximately 100 nM. […]

[4] = test system: SKOV-3, OVCAR-3, ID8 and Kuramochi cells; assay: 7-AAD late apoptosis/cell death assay, statements for all four ovarian cancer cell lines; format: cell-based, human, mouse; details: 24 hr post-transfection
Protocol: (§1) 7-AAD assay was performed as before (14, 15). Briefly, the cells were collected 24 hr post-transfection. The cell pellets were resuspended in 300 μL of 1.25 μg/mL 7-AAD in PBS. The cells were incubated on ice for 20 minutes, and analyzed using FACS-Canto-II similar to the TMRE assay. The cells were gated for EGFP positive (excitation at 480 nm and emission at 535 nm) and 7-AAD positive (excitation at 496 nm and emission at 785 nm). The constructs were assayed in triplicates. The lowest and highest values were set at 0% and 100%, respectively (relative 7-AAD) as before (14).

SKOV-3 cells [5] = assay: 7-AAD late apoptosis/cell death assay; format: cell-based, human; details: SKOV-3, 24 hr post-transfection
Protocol: (§2) Images of p53-BH3 (EGFP tagged on N-terminus) can be acquired 18 h post-transfection with an Olympus IX71F fluorescence microscope with a F-View Monochrome CCD camera and analyzed with ImageJ using Pearson's correlation coefficient (PCC) and post Costes' algorithm. PCC≥0.6 are considered to be colocalized. […] Apoptosis assay: 7-AAD assay (measuring late-stage apoptosis) can be performed as done before as an initial screen. As before, cells can be stained with […] working solution of 7-aminoactinomycin D (7-AAD) 24 hr post-transfection. Cells can be analyzed and gated for EGFP with the same fluorescence intensity to ensure equal detection of proteins
as §1

p53-Luc Cis-Reporter = assay: Nuclear transcriptional activity p53 luciferase reporter gene assay; format: cell-based; details: SKOV-3, OVCAR-3, ID8 and Kuramochi cells, 24 hr post-transfection
Protocol: All constructs (3.5 μg of DNA) were co-transfected with 3.5 μg of p53-Luc Cis-reporter plasmid encoding a firefly luciferase gene (Agilent Technologies; Santa Clara, Calif.) and 0.35 μg of pRL-SV40 plasmid encoding a Renilla luciferase gene (Promega; Madison, Wis.). Renilla luciferase was used to normalize for transfection efficiency in respective cell lines. The Dual-Glo Luciferase Assay System (Promega) was used to determine the firefly luciferase activity and Renilla luciferase activity per manufacturer's recommendation 24 hr post-transfection as before. The luminescence signal was detected using the Infinite M1000 microplate reader (Tecan; Männedorf, Switzerland). The Dual-Glo luciferase assay was performed in triplicate.

ID8 cells = assay: 7-AAD late apoptosis/cell death assay; format: cell-based, mouse; details: ID8, 24 hr post-transfection
Protocol: as §2, §1

[6] = test system: SKOV-3, OVCAR-3, ID8 and Kuramochi cells; assay: TMRE mitochondrial depolarization (MOMP) assay, statements for the four ovarian cancer cell lines; format: cell-based, human, mouse; details: four cell lines of FIG. 17, 20 hr post-transfection
Protocol: (§3) […] Cells were incubated for 30 minutes at 37° C. then analyzed using flow cytometry (FACS-Canto-II with FACS Diva software, core facility, University of Utah) as described before. EGFP was excited at 488 nm with emission filter 530/35, and TMRE was excited at 561 nm with emission filter 585/15. The loss in TMRE intensity indicates mitochondrial depolarization, which correlates with an increase in the permeabilization of the mitochondrial outer membrane (MOMP). Each construct was transfected independently and tested in triplicates (n=3). The lowest MOMP value was set as 0%, and the highest MOMP value as 100% as before.

Kuramochi cells [7] = assay: 7-AAD assay of constructs combined with paclitaxel; format: cell-based, human; details: paclitaxel 100 nM or 200 nM added 4 hr after transfection, 48 hr
Protocol: The IC50 of paclitaxel was determined using a cell viability MTT assay. Kuramochi cells were incubated with different paclitaxel concentrations ranging from 0 nM to 1000 nM for 48 hr. […] A control group without paclitaxel (0 nM) was also included. The cells were incubated for 48 hr before the 7-AAD assay.

SKOV-3 cells [8] = assay: Mitochondrial localization of EGFP-tagged constructs, fluorescence microscopy with PCC analysis; format: cell-based, human; details: mitochondria stained with MitoTracker Red, CMV promoter
Protocol: as §2
24 hr post-transfection, cells were stained in PBS solution containing 200 nM MitoTracker Red CM-H2Xros (Thermo Scientific), 1:100 dilution of ProLong Live Antifade Reagent (Thermo Scientific), and 2 μM Hoechst stain. The cells were incubated for 20 minutes protected from light. Images were acquired using a Nikon AIR fluorescence confocal microscope with 60× Plan Apo Oil immersion objective (core facility, University of Utah). The images were visualized using NIS element software with built in EGFP, MitoTracker Red, and DAPI filters. Co-localization analyses were performed using the JACoP plugin for ImageJ software. […] The experiments were performed three times with 10 cells analyzed each experiment for a total of 30 cells per gene constructs.

OVCAR-3 cells [9] = assay: TMRE mitochondrial depolarization (MOMP) assay; format: cell-based, human; details: OVCAR-3, 20 hr post-transfection
Excerpt: […] Flow cytometry can be used to analyze […] cells using the PE-A channel (excitation at 561 nm with emission at 585/15). Loss in TMRE intensity represents mitochondrial depolarization, which correlates to mitochondrial outer membrane permeabilization (MOMP). […] Bad alone constructs may have some activity, but may be weaker or slower acting than p53-Bad constructs. This underscores the importance of using apoptotic, cell death, proliferation, and oncogenic assays to paint a complete picture of construct potency/efficacy.
as §3

Molecule	apoptosis / cell death (7-AAD) [4]	apoptosis / cell death (7-AAD) (SKOV-3 cells [5])	nuclear transcriptional activity (firefly luciferase) (p53-Luc Cis-Reporter)	apoptosis / cell death (7-AAD) (ID8 cells)	mitochondrial depolarization / % MOMP induction (TMRE) [6]	subcellular localization of EGFP-tagged construct (SKOV-3 cells [8])	mitochondrial depolarization / % MOMP induction (TMRE) (OVCAR-3 cells [9])	other results
poly (cystaminebisacryl-amide-diaminohexane)-polyethylene glycol linked to RGD (Arg-Gly-Asp) [polymer alone]								immunogenicity at injection site [1]: no swelling, inflammation, or redness at injection site
CN(C)CC[C@H](CSc1ccccc1)Nc1ccc(S(=O)(=O)NC(=O)c2ccc(N3CCN(Cc4ccccc4-c4ccc(Cl)cc4)CC3)cc2)cc1[N+](=O)[O-] [ABT-737]								IC50 (OVCAR-3 cells [2]): 10 ± 4 µM
CC(=O)O[C@H]1C(=O)[C@@]2(C)[C@H]([C@H](OC(=O)c3ccccc3)[C@]3(O)C[C@H](OC(=O)[C@H](O)[C@@H](NC(=O)c4ccccc4)c4ccccc4)C(C)=C1C3(C)C)[C@]1(OC(C)=O)CO[C@@H]1C[C@@H]2O [paclitaxel]								IC50 (Kuramochi cells [3]): ~0.1 µM
B1	comparable to EGFP (negative control) except in OVCAR-3 cells; also recorded: apoptotic activity diminishes	inactive	do not activate firefly luciferase	inactive	significant level of % MOMP	mitochondrial localization; also recorded: effectively localize to the mitochondria	some activity	effect of added paclitaxel on the activity of the construct (7-AAD) (Kuramochi cells [7]): does not seem to increase; effect of deleting the BH3 domain of Bad on activity (TMRE) (OVCAR-3 cells [9]; FIG. 20): significantly reduces the activity
B2	comparable to EGFP (negative control) except in OVCAR-3 cells; also recorded: apoptotic activity diminishes	inactive	do not activate firefly luciferase	inactive	significant level of % MOMP	found in the cytoplasm	some activity	
